PMC9482650, “Quantitative fragmentomics allow affinity mapping of interactomes” (Nature Communications, 2022)

Tests used:
Test in all cases: holdup assay
Parameters in all cases: key: below the threshold = too weak to quantify, mostly under pKd 3.1 to 4
Details in all cases: plain residues with an end cap or a label only (N-terminal biotin on a linker: ado-ado)
[1] = target: DLG1_2, Q12959
[2] = target: T1, RAPGEF6, Q8TEU7
T1 sequence (Q8TEU7 525-625, limits assumed, looked up): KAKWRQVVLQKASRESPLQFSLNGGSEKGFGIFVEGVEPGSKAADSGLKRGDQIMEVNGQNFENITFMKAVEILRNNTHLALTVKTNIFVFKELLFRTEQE

[3] = target: T2, LIN7C, Q9NUP9
T2 sequence (Q9NUP9 88-185, limits assumed, looked up): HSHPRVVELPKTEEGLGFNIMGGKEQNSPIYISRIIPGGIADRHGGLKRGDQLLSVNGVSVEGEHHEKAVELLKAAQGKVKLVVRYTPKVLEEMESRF

[4] = target: T3, SNTG2, Q9NY99
T3 sequence (Q9NY99 68-166, limits assumed, looked up): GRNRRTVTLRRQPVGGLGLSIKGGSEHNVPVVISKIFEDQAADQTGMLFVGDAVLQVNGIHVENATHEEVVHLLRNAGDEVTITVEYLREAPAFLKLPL

[5] = target: T4, NHERF3_4, Q5T2W1
T4 sequence (Q5T2W1 373-468, limits assumed, looked up): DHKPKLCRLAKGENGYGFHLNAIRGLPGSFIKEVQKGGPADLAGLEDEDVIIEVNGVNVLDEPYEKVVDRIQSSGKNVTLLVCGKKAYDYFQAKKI

Chain of DLG1_2, Q12959 (Q12959 314-412): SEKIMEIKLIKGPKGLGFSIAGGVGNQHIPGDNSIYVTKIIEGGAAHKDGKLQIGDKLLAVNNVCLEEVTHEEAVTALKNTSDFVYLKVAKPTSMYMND

KRPEMTSSSV [MUC3B, MUC3A, Q02505;Q9H195] was tested, and the pKd [1] was 4.06, the pKd [2] was “below the threshold” and the pKd [3] was “below the threshold”. For the same binder, the pKd [4] was 3.9 and the pKd [5] was “below the threshold”.
